# According to the supplement of paper PMC9112550, “Optimization of the antimicrobial peptide Bac7 by deep mutational scanning” (BMC Biology, 2022):
# Tested on: Escherichia coli TOP10
# Test: shrunken log2 fold change of peptide-encoding DNA abundance (4.5 h post-induction vs induction); higher = less antimicrobial activity (less host growth inhibition)
# Details: time post-induction: 4.5 h; library: site-saturation at positions 5, 18, 19, 20
# 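Note: peptides expressed intracellularly from a pBAD plasmid library in pooled LB shake-flask culture, induced with 0.3% L-arabinose, DNA abundance read by NGS, three biological replicates, DESeq2 with apeglm shrinkage.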
row,Sequence,shrunken log2 fold change
1,RRIRWRPPRLPRPRPRPFIFPRP,-0.0639
2,RRIRYRPPRLPRPRPRPCTLPRP,0.0191
3,RRIRGRPPRLPRPRPRPQKTPRP,-0.0351
4,RRIRFRPPRLPRPRPRPIGEPRP,0.0336
5,RRIRIRPPRLPRPRPRPRTGPRP,-0.0659
6,RRIRGRPPRLPRPRPRPCSLPRP,0.237
7,RRIRDRPPRLPRPRPRPLHEPRP,-0.129
8,RRIRYRPPRLPRPRPRPHQFPRP,-0.984
9,RRIRKRPPRLPRPRPRPKMHPRP,0.483
10,RRIRVRPPRLPRPRPRPVPFPRP,-0.115
11,RRIRVRPPRLPRPRPRPDFPPRP,0.0164
12,RRIRPRPPRLPRPRPRPFQLPRP,-0.0657
13,RRIRLRPPRLPRPRPRPFWSPRP,-0.162
14,RRIRMRPPRLPRPRPRPFWCPRP,0.314
15,RRIRERPPRLPRPRPRPMPSPRP,0.156
16,RRIRDRPPRLPRPRPRPPYRPRP,0.0425
17,RRIRQRPPRLPRPRPRPERDPRP,0.321
18,RRIRPRPPRLPRPRPRPLMTPRP,-0.0836
19,RRIRQRPPRLPRPRPRPRWWPRP,0.417
20,RRIRARPPRLPRPRPRPACHPRP,0.371
21,RRIRVRPPRLPRPRPRPWDLPRP,0.146
22,RRIRFRPPRLPRPRPRPKVRPRP,-0.022
23,RRIRHRPPRLPRPRPRPSWTPRP,-0.356
24,RRIRKRPPRLPRPRPRPFWDPRP,-0.0842
25,RRIRERPPRLPRPRPRPFHYPRP,-0.416

row,Sequence,shrunken log2 fold change
1,RRIRKRPPRLPRPRPRPVHLPRP,-0.0295
2,RRIRVRPPRLPRPRPRPCWSPRP,0.0821
3,RRIRHRPPRLPRPRPRPDPFPRP,-0.409
4,RRIRRRPPRLPRPRPRPHHPPRP,-0.0853
5,RRIRPRPPRLPRPRPRPMVQPRP,0.0526
6,RRIRRRPPRLPRPRPRPMDAPRP,0.161
7,RRIRSRPPRLPRPRPRPMVPPRP,-0.0173
8,RRIRFRPPRLPRPRPRPYFHPRP,-1.66
9,RRIRERPPRLPRPRPRPFEDPRP,-0.0547
10,RRIRIRPPRLPRPRPRPPRRPRP,0.396
11,RRIRYRPPRLPRPRPRPLLSPRP,-0.186
12,RRIRYRPPRLPRPRPRPLDYPRP,-1.11
13,RRIRKRPPRLPRPRPRPNKNPRP,0.125
14,RRIRDRPPRLPRPRPRPHHAPRP,0.00408
15,RRIRSRPPRLPRPRPRPFWSPRP,-0.183
16,RRIRNRPPRLPRPRPRPSCDPRP,-0.179
17,RRIRTRPPRLPRPRPRPSALPRP,-0.178
18,RRIRMRPPRLPRPRPRPKGRPRP,-0.00141
19,RRIRARPPRLPRPRPRPLLKPRP,0.0989
20,RRIRIRPPRLPRPRPRPKHHPRP,-0.366
21,RRIRLRPPRLPRPRPRPDFFPRP,0.0131
22,RRIRARPPRLPRPRPRPSMPPRP,-0.176
23,RRIRCRPPRLPRPRPRPCQGPRP,-0.0713
24,RRIRHRPPRLPRPRPRPVFFPRP,-0.0644
25,RRIRIRPPRLPRPRPRPFNDPRP,-0.0749

row,Sequence,shrunken log2 fold change
1,RRIRPRPPRLPRPRPRPACIPRP,-0.25
2,RRIRLRPPRLPRPRPRPHDSPRP,0.0936
3,RRIRNRPPRLPRPRPRPGQIPRP,0.0192
4,RRIRWRPPRLPRPRPRPSHPPRP,-0.0699
5,RRIRGRPPRLPRPRPRPKADPRP,1.29
6,RRIRWRPPRLPRPRPRPPFWPRP,0.836
7,RRIRRRPPRLPRPRPRPCEHPRP,-0.212
8,RRIRFRPPRLPRPRPRPSEEPRP,-0.196
9,RRIRARPPRLPRPRPRPEHMPRP,0.137
10,RRIRARPPRLPRPRPRPASIPRP,0.0775
11,RRIRQRPPRLPRPRPRPNGTPRP,1.1
12,RRIRTRPPRLPRPRPRPPDEPRP,0.0184
13,RRIRIRPPRLPRPRPRPPTQPRP,0.215
14,RRIRPRPPRLPRPRPRPGNFPRP,-0.25
15,RRIRFRPPRLPRPRPRPLVTPRP,-0.318
16,RRIRMRPPRLPRPRPRPFNRPRP,-0.00136
17,RRIRRRPPRLPRPRPRPWMPPRP,-0.217
18,RRIRVRPPRLPRPRPRPPTHPRP,0.117
19,RRIRQRPPRLPRPRPRPITLPRP,-0.418
20,RRIRVRPPRLPRPRPRPWCMPRP,-0.468
21,RRIRARPPRLPRPRPRPDVQPRP,0.474
22,RRIRCRPPRLPRPRPRPIPAPRP,0.0747
23,RRIRDRPPRLPRPRPRPFVRPRP,-0.234
24,RRIRMRPPRLPRPRPRPQDDPRP,-0.00208
25,RRIRFRPPRLPRPRPRPKYPPRP,-0.31

row,Sequence,shrunken log2 fold change
1,RRIRTRPPRLPRPRPRPCYRPRP,-0.0575
2,RRIRQRPPRLPRPRPRPQFHPRP,-0.591
3,RRIRLRPPRLPRPRPRPVKKPRP,0.031
4,RRIRWRPPRLPRPRPRPCPVPRP,-0.249
5,RRIRTRPPRLPRPRPRPAWKPRP,0.0317
6,RRIRHRPPRLPRPRPRPFMYPRP,-0.249
7,RRIRGRPPRLPRPRPRPYNDPRP,-0.155
8,RRIRERPPRLPRPRPRPLPMPRP,0.187
9,RRIRLRPPRLPRPRPRPVPIPRP,0.125
10,RRIRRRPPRLPRPRPRPAEWPRP,0.136
11,RRIRRRPPRLPRPRPRPQQIPRP,-0.0299
12,RRIRCRPPRLPRPRPRPELRPRP,0.0185
13,RRIRRRPPRLPRPRPRPCRAPRP,0.182
14,RRIRTRPPRLPRPRPRPRFCPRP,0.443
15,RRIRERPPRLPRPRPRPRSQPRP,-0.341
16,RRIRYRPPRLPRPRPRPDCNPRP,-0.871
17,RRIRYRPPRLPRPRPRPMHHPRP,-0.596
18,RRIRTRPPRLPRPRPRPEEKPRP,0.167
19,RRIRVRPPRLPRPRPRPHHIPRP,-0.386
20,RRIRNRPPRLPRPRPRPCGHPRP,0.0743
21,RRIRTRPPRLPRPRPRPKKGPRP,-0.0611
22,RRIRIRPPRLPRPRPRPFMPPRP,-0.821
23,RRIRMRPPRLPRPRPRPGRWPRP,1.66
24,RRIRFRPPRLPRPRPRPHMFPRP,-0.21
25,RRIRCRPPRLPRPRPRPAYMPRP,0.119

row,Sequence,shrunken log2 fold change
1,RRIRHRPPRLPRPRPRPSHFPRP,-0.0233
2,RRIRPRPPRLPRPRPRPKVIPRP,-0.172
3,RRIRVRPPRLPRPRPRPHDFPRP,-0.00674
4,RRIRWRPPRLPRPRPRPVEVPRP,-0.0825
5,RRIRFRPPRLPRPRPRPSEQPRP,-0.217
6,RRIRQRPPRLPRPRPRPEHAPRP,0.0519
7,RRIRGRPPRLPRPRPRPYYAPRP,-0.242
8,RRIRFRPPRLPRPRPRPIWVPRP,-0.107
9,RRIRMRPPRLPRPRPRPTLNPRP,0.299
10,RRIRARPPRLPRPRPRPQEIPRP,0.107
11,RRIRHRPPRLPRPRPRPTFWPRP,0.179
12,RRIRYRPPRLPRPRPRPEIYPRP,-0.279
13,RRIRFRPPRLPRPRPRPFGVPRP,-0.166
14,RRIRTRPPRLPRPRPRPAYRPRP,-0.111
15,RRIRMRPPRLPRPRPRPNAQPRP,0.43
16,RRIRPRPPRLPRPRPRPLQDPRP,0.151
17,RRIRNRPPRLPRPRPRPFLVPRP,-0.0697
18,RRIRIRPPRLPRPRPRPAAQPRP,0.14
19,RRIRVRPPRLPRPRPRPDQMPRP,0.0399
20,RRIRKRPPRLPRPRPRPPCQPRP,0.47
21,RRIRIRPPRLPRPRPRPPEWPRP,0.0764
22,RRIRNRPPRLPRPRPRPCNFPRP,-0.0737
23,RRIRDRPPRLPRPRPRPSPVPRP,0.0438
24,RRIRIRPPRLPRPRPRPAIMPRP,-0.565
25,RRIRMRPPRLPRPRPRPFFDPRP,0.232
